Results taken from the supplement of paper PMC7877785.
± gives the uncertainty stated by the source.

Test: self-splicing fitness, log relative to wild type (ln ratio); higher = more splicing; Tetrahymena group I intron in knt gene, E. coli kanamycin selection, DiMSum; sequences stand for … in CUCUCU…GGAGGGAAAAGUUAUCAGGCAUGCACCUGGUAGCUAGUCUUUAAACCAAUAGAUUGCAUCGGUUUAAAAGGCAAGACCGUCAAAUUGCGGGAAAGGGGUCAACAGCCGUUCAGUACCAAGUCUCAGGGGAAACUUUGAGAUGGCCUUGCAAAGGGUAUGGUAAUAAGCUGACGGACAUGGUCCUAACCACGCAGCCAAGUCCUAAGUCAACAGAUCUUCUGUUGAUAUGGAUGCAGUUCACAGACUAAAUGUCGGUCGGGGAAGAUGUAUUCUUCUCAUAAGAUAUAGUCGGACCUCUCCUUAAUGGGAGCUAGCGGAUGAAGUGAUGCAACACUGGAGCCGCUGGGAACUAAUUUGUAUGCGAAAGUAUAUUGAUUAGUUUUGGAGUACUCGUGGUCG
Procedure, shortened: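 Pooled colonies went to amplicon sequencing on an Illumina HiSeq 2500 after six replicate transformations. The plates were LB agar with 100 μg/mL carbenicillin, 50 μM IPTG and 0.2% rhamnose, with or without 25 μg/mL kanamycin, incubated overnight at 37°C or 30°C. The E. coli BL21(DE3) library had all eight P1ex-region intron nucleotides randomised, the intron placed in the knt kanamycin-resistance gene on pET-22b(+). DiMSum fitness is the error-weighted combination of replicate fold changes, kanamycin against none, normalised to wild type.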

| Sequence | self-splicing fitness (ln) (30 °C) | self-splicing fitness (ln) (37 °C) |
| --- | --- | --- |
| AUGGAGCAAUAUUACGUUGC | -3.34 ± 0.4 | -2.22 ± 0.42 |
| AUGUAGCAAUAUUACGAAAC | -2.77 ± 0.24 | -1.76 ± 0.27 |
| AUGUAGCAAUAUUACGACAC | -1.31 ± 0.14 | -0.0916 ± 0.2 |
| AUGUAGCAAUAUUACGAGAG | -4.62 ± 0.39 | -2.71 ± 0.22 |
| AUGUAGCAAUAUUACGAGGG | -3.49 ± 0.23 | -1.18 ± 0.22 |
| AUGUAGCAAUAUUACGAGGU | -2.28 ± 0.19 | -1.84 ± 0.23 |
| AUGUAGCAAUAUUACGAGUA | -2.73 ± 0.17 | -1.72 ± 0.13 |
| AUGUAGCAAUAUUACGAUUU | -0.199 ± 0.093 | 0.373 ± 0.11 |
| AUGUAGCAAUAUUACGCGCG | -0.882 ± 0.093 | -0.464 ± 0.099 |
| AUGUAGCAAUAUUACGCGUG | -1.44 ± 0.12 | -0.836 ± 0.12 |
| AUGUAGCAAUAUUACGCUUA | -0.903 ± 0.14 | -0.145 ± 0.16 |
| AUGUAGCAAUAUUACGGACC | -1.05 ± 0.2 | -0.411 ± 0.21 |
| AUGUAGCAAUAUUACGGAUC | -1.92 ± 0.2 | -1.61 ± 0.23 |
| AUGUAGCAAUAUUACGGCAU | -1.88 ± 0.12 | -1.69 ± 0.16 |
| AUGUAGCAAUAUUACGGGAG | -3.16 ± 0.29 | -2.64 ± 0.44 |
| AUGUAGCAAUAUUACGGGUU | -2.26 ± 0.1 | -2.23 ± 0.19 |
| AUGUAGCAAUAUUACGGUUG | -3.62 ± 0.2 | -1.99 ± 0.19 |
| AUGUAGCAAUAUUACGUAUC | -4.2 ± 0.42 | -2.58 ± 0.3 |
| AUGUAGCAAUAUUACGUCCA | -1.65 ± 0.17 | -0.252 ± 0.17 |
| AUGUAGCAAUAUUACGUCCU | -0.674 ± 0.13 | 0.252 ± 0.19 |
| AUGUAGCAAUAUUACGUGAU | -1.52 ± 0.082 | -0.75 ± 0.11 |
| AUGUAGCAAUAUUACGUUAG | -1.89 ± 0.22 | -2.97 ± 0.4 |
| AUUAAGCAAUAUUACGAAAU | -1.35 ± 0.13 | -1.44 ± 0.18 |
| AUUAAGCAAUAUUACGACCA | -0.395 ± 0.2 | -0.571 ± 0.25 |
| AUUAAGCAAUAUUACGAUAG | -3.89 ± 0.37 | -2.55 ± 0.31 |

| Sequence | self-splicing fitness (ln) (30 °C) | self-splicing fitness (ln) (37 °C) |
| --- | --- | --- |
| AUUAAGCAAUAUUACGAUUA | -0.777 ± 0.13 | -0.308 ± 0.13 |
| AUUAAGCAAUAUUACGCAUC | -3.36 ± 0.31 | -1.24 ± 0.25 |
| AUUAAGCAAUAUUACGCCUG | -0.765 ± 0.15 | -0.543 ± 0.17 |
| AUUAAGCAAUAUUACGGCCU | -0.548 ± 0.1 | -0.318 ± 0.12 |
| AUUAAGCAAUAUUACGGCGA | -0.67 ± 0.12 | -0.121 ± 0.14 |
| AUUAAGCAAUAUUACGGCUU | -0.718 ± 0.088 | 0.207 ± 0.12 |
| AUUAAGCAAUAUUACGGGUU | -2.34 ± 0.23 | -2.92 ± 0.38 |
| AUUAAGCAAUAUUACGGUAA | -1.64 ± 0.12 | -1.33 ± 0.11 |
| AUUAAGCAAUAUUACGGUAU | -1.01 ± 0.11 | -1.2 ± 0.14 |
| AUUAAGCAAUAUUACGUACG | -1.15 ± 0.13 | -0.777 ± 0.14 |
| AUUAAGCAAUAUUACGUAGG | -2.34 ± 0.18 | -1.81 ± 0.29 |
| AUUAAGCAAUAUUACGUCCU | -0.24 ± 0.097 | 0.264 ± 0.12 |
| AUUAAGCAAUAUUACGUCGC | -3.33 ± 0.22 | -2.8 ± 0.25 |
| AUUAAGCAAUAUUACGUUAG | -2.76 ± 0.23 | -3.12 ± 0.27 |
| AUUAAGCAAUAUUACGUUGU | -1.98 ± 0.21 | -2.8 ± 0.32 |
| AUUCAGCAAUAUUACGACCU | -0.21 ± 0.095 | 0.317 ± 0.12 |
| AUUCAGCAAUAUUACGAGGC | -3.49 ± 0.19 | -1.51 ± 0.19 |
| AUUCAGCAAUAUUACGAGUA | -1.81 ± 0.2 | -1.24 ± 0.18 |
| AUUCAGCAAUAUUACGCAAG | -1.26 ± 0.098 | -0.884 ± 0.13 |
| AUUCAGCAAUAUUACGCCAU | -1.46 ± 0.1 | -1.09 ± 0.1 |
| AUUCAGCAAUAUUACGCCCA | -1.11 ± 0.18 | -0.0785 ± 0.23 |
| AUUCAGCAAUAUUACGCGAC | -2.38 ± 0.23 | -0.937 ± 0.18 |
| AUUCAGCAAUAUUACGCUAU | -1.45 ± 0.079 | -0.637 ± 0.1 |
| AUUCAGCAAUAUUACGCUGC | -2.3 ± 0.13 | -2.35 ± 0.19 |
| AUUCAGCAAUAUUACGCUUC | -2.28 ± 0.15 | -1.76 ± 0.18 |

| Sequence | self-splicing fitness (ln) (30 °C) | self-splicing fitness (ln) (37 °C) |
| --- | --- | --- |
| AUUCAGCAAUAUUACGGACA | -0.904 ± 0.078 | -0.744 ± 0.095 |
| AUUCAGCAAUAUUACGGACC | -0.601 ± 0.1 | 0.355 ± 0.15 |
| AUUCAGCAAUAUUACGGACG | -0.626 ± 0.08 | -0.168 ± 0.098 |
| AUUCAGCAAUAUUACGGGGC | -3.25 ± 0.3 | -2.99 ± 0.21 |
| AUUCAGCAAUAUUACGGUGA | -0.556 ± 0.097 | -0.526 ± 0.086 |
| AUUCAGCAAUAUUACGUUAA | -1.62 ± 0.12 | -0.923 ± 0.1 |
| AUUGAGCAAUAUUACGAACC | – | -2.31 ± 0.46 |
| AUUGAGCAAUAUUACGAGAU | -3.73 ± 0.35 | -1.11 ± 0.26 |
| AUUGAGCAAUAUUACGAGUC | -4.1 ± 0.34 | -2.38 ± 0.35 |
| AUUGAGCAAUAUUACGCCUU | -2.26 ± 0.39 | -1.89 ± 0.3 |
| AUUGAGCAAUAUUACGCGAC | -3.45 ± 0.3 | -1.2 ± 0.24 |
| AUUGAGCAAUAUUACGCGCU | -2.3 ± 0.29 | -1.29 ± 0.41 |
| AUUGAGCAAUAUUACGCGGG | -3.34 ± 0.36 | -2.25 ± 0.35 |
| AUUGAGCAAUAUUACGCGUU | -3.02 ± 0.26 | -2.34 ± 0.23 |
| AUUGAGCAAUAUUACGGCAA | -1.58 ± 0.14 | -0.831 ± 0.13 |
| AUUGAGCAAUAUUACGGCAU | -1.17 ± 0.088 | -0.323 ± 0.13 |
| AUUGAGCAAUAUUACGGCUC | – | -1.77 ± 0.32 |
| AUUGAGCAAUAUUACGGGCC | -2.96 ± 0.36 | -2.05 ± 0.43 |
| AUUGAGCAAUAUUACGGGUA | – | -2.06 ± 0.32 |
| AUUGAGCAAUAUUACGGGUC | -3.34 ± 0.39 | – |
| AUUGAGCAAUAUUACGGGUU | -3.92 ± 0.25 | -3.31 ± 0.21 |
| AUUGAGCAAUAUUACGGUAA | -3.25 ± 0.22 | -2.53 ± 0.2 |
| AUUGAGCAAUAUUACGGUGA | -2.89 ± 0.28 | -1.48 ± 0.22 |
| AUUGAGCAAUAUUACGUAGA | -2.86 ± 0.26 | -2.38 ± 0.42 |
| AUUGAGCAAUAUUACGUAGG | -3.16 ± 0.37 | 0.0777 ± 0.29 |

| Sequence | self-splicing fitness (ln) (30 °C) | self-splicing fitness (ln) (37 °C) |
| --- | --- | --- |
| AUUGAGCAAUAUUACGUCAU | -2.76 ± 0.14 | -2.12 ± 0.17 |
| AUUGAGCAAUAUUACGUCGG | -4.24 ± 0.46 | -1.68 ± 0.39 |
| AUUGAGCAAUAUUACGUUUU | -3.05 ± 0.17 | -1.38 ± 0.22 |
| AUUUAGCAAUAUUACGAACA | -0.709 ± 0.15 | -0.537 ± 0.17 |
| AUUUAGCAAUAUUACGAAUG | -2.39 ± 0.19 | -0.72 ± 0.21 |
| AUUUAGCAAUAUUACGAGGG | – | -1.34 ± 0.28 |
| AUUUAGCAAUAUUACGAUUA | -1.4 ± 0.2 | -0.561 ± 0.16 |
| AUUUAGCAAUAUUACGCAAU | -2.53 ± 0.2 | -1.86 ± 0.18 |
| AUUUAGCAAUAUUACGCAGU | -3 ± 0.28 | -2.18 ± 0.26 |
| AUUUAGCAAUAUUACGCAUG | -1.05 ± 0.12 | -0.777 ± 0.18 |
| AUUUAGCAAUAUUACGCCAU | -0.966 ± 0.27 | 0.446 ± 0.24 |
| AUUUAGCAAUAUUACGCCCA | -1.06 ± 0.26 | -1.58 ± 0.27 |
| AUUUAGCAAUAUUACGCGGG | -2.72 ± 0.19 | -1.96 ± 0.16 |
| AUUUAGCAAUAUUACGCGGU | -2.13 ± 0.29 | -1.87 ± 0.44 |
| AUUUAGCAAUAUUACGGAGU | -2.92 ± 0.27 | -2.29 ± 0.27 |
| AUUUAGCAAUAUUACGGGAU | -1.42 ± 0.11 | -0.217 ± 0.14 |
| AUUUAGCAAUAUUACGGGCG | -1.77 ± 0.12 | -0.764 ± 0.12 |
| AUUUAGCAAUAUUACGUACU | -0.21 ± 0.11 | -0.13 ± 0.15 |
| AUUUAGCAAUAUUACGUAGC | -3 ± 0.23 | -1.64 ± 0.25 |
| AUUUAGCAAUAUUACGUAUC | – | -2.15 ± 0.32 |
| AUUUAGCAAUAUUACGUUUU | -3.37 ± 0.24 | -2.25 ± 0.2 |
| CAAAAGCAAUAUUACGACGU | -0.652 ± 0.066 | 0.0132 ± 0.08 |
